Data on 3 proteins can be found in US20040254347.

Series [1] has as its target T1, Fusion Protein No:1 (GST fused with insert SEQ ID NO:2).
T1 chain: QIKS

In series [2] the target is T2, Fusion protein FP#2 (GST fused with insert SEQ ID NO:3).
T2 chain: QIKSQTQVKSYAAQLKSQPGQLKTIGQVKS

For series [3], the target named is T3, Fusion protein FP#3 (GST fused with insert SEQ ID NO:4).
T3 chain: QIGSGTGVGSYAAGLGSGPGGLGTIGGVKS

“Also recorded” adds a separate entry of the source.

B1: mouse coagulating gland transglutaminase (TG4) (protein)
chain: MDSRNVLIIYAVNVERKLNAAAHHTSEYQTKKLVLRRGQIFTLKVILNRPLQPQDELKVTFTSGQRDPPYMVELDPVTSYRSKGWQVKIAKQSGVEVILNVISAADAVVGRYKMRVNEYKAGVFYLLFNPWCSDDSVFMASEEERAEYILNDTGYMYMGFAKQIKEKPWTFGQFEKHILSCCFNLLFQLENNEMQNPVLVSRAICTMMCAANGGVLMGNWTGDYADGTAPYVWTSSVPILQQHYVTRMPVRYGQCWVFSGILTTALRAVGIPARSVTNFESAHDTEKNLTVDIYLDESGKTIPHLTKDSVWNFHVWTDAWMKRQDLPHGYDGWQVLDSTPQEISDGGFRTGPSPLTAIRQGLIQMKYDTTFVFTEVNGDKFIWLVKQNQEREKNILIAVETASLGKKISTKMVGENRREDITLQYRFPEGSPEERKVMAKASGKPSDDKLNSRTLNNSLQISVLQNSLELGAPIYLTITLKRKTATPQNVNISCSLNLQTYTGNKKTNLGVIQKTVQIHGQESRVFLTMDASYYIYKLGMVDDEMVIGGFIIAEIVDSGERVATDTTLCFLYSAFSVEMPSTGKVKQPLVITSKFTNTLPIPLTNIKFSVESLGLANMKSWEQETVPPGKTITFQMECTPVKAGPQKFIVKFISRQVKEVHAEKVVLISK
Consider B1, for which the “cross-linking by transglutaminase, SDS-PAGE” value (“cross-linking” for short) in series [1] was “FP#1, with the essential sequence of QXKS/T, is a good substrate of transglutaminases from different sources”.

B2: Thrombin-activated factor XIII (human blood factor XIII) (protein)
chain: GVNLQEFLNVTSVHLFKERWDTNKVDHHTDKYENNKLIVRRGQSFYVQIDFSRPYDPRRDLFRVEYVIGRYPQENKGTYIPVPIVSELQSGKWGAKIVMREDRSVRLSIQSSPKCIVGKFRMYVAVWTPYGVLRTSRNPETDTYILFNPWCEDDAVYLDNEKEREEYVLNDIGVIFYGEVNDIKTRSWSYGQFEDGILDTCLYVMDRAQMDLSGRGNPIKVSRVGSAMVNAKDDEGVLVGSWDNIYAYGVPPSAWTGSVDILLEYRSSENPVRYGQCWVFAGVFNTFLRCLGIPARIVTNYFSAHDNDANLQMDIFLEEDGNVNSKLTKDSVWNYHCWNEAWMTRPDLPVGFGGWQAVDSTPQENSDGMYRCGPASVQAIKHGHVCFQFDAPFVFAEVNSDLIYITAKKDGTHVVENVDATHIGKLIVTKQIGGDGMMDITDTYKFQEGQEEERLALETALMYGAKKPLNTEGVMKSRSNVDMDFEVENAVLGKDFKLSITFRNNSHNRYTITAYLSANITFYTGVPKAEFKKETFDVTLEPLSFKKEAVLIQAGEYMGQLLEQASLHFFVTARINETRDVLAKQKSTVLTIPEIIIKVRGTQVVGSDMTVTVEFTNPLKETLRNVWVHLDGPGVTRPMKKMFREIRPNSTVQWEEVCRPWVSGHRKLIASMSSDSLRHVYGELDVQIQRRPSM
Regarding B2, the “cross-linking” value in series [1] was “FP#1, with the essential sequence of QXKS/T, is a good substrate of transglutaminases from different sources”.

B3: tissue transglutaminase from guinea pig's liver (protein)
chain: AEDLILERCDLQLEVNGRDHRTADLCRERLVLRRGQPFWLTLHFEGRGYEAGVDTLTFNAVTGPDPSEEAGTMARFSLSSAVEGGTWSASAVDQQDSTVSLLLSTPADAPIGLYRLSLEASTGYQGSSFVLGHFILLYNPRCPADAVYMDSDQERQEYVLTQQGFIYQGSAKFINGIPWNFGQFEDGILDICLMLLDTNPKFLKNAGQDCSRRSRPVYVGRVVSAMVNCNDDQGVLQGRWDNNYSDGVSPMSWIGSVDILRRWKDYGCQRVKYGQCWVFAAVACTVLRCLGIPTRVVTNFNSAHDQNSNLLIEYFRNESGEIEGNKSEMIWNFHCWVESWMTRPDLEPGYEGWQALDPTPQEKSEGTYCCGPVPVRAIKEGHLNVKYDAPFVFAEVNADVVNWIRQKDGSLRKSINHLVVGLKISTKSVGRDEREDITHTYKYPEGSEEEREAFVRANHLNKLATKEEAQEETGVAMRIRVGQNMTMGSDFDIFAYITNGTAESHECQLLLCARIVSYNGVLGPVCSTNDLLNLTLDPFSENSIPLHILYEKYGDYLTESNLIKVRGLLIEPAANSYVLAERDIYLENPEIKIRVLGEPKQNRKLIAEVSLKNPLPVPLLGCIFTVEGAGLTKDQKSVEVPDPVEAGEQAKVRVDLLPTEVGLHKLVVNFECDKLKAVKGYRNVIIGPA
With B3, the “cross-linking” value in series [1] is on record as “FP#1 was cross-linked to a dimer by the enzyme reaction; also recorded: FP#1, with the essential sequence of QXKS/T, is a good substrate of transglutaminases from different sources”; in series [2], “the enzyme-catalyzed cross-links of FP#2 were very striking ... There were almost no FP#2 monomer left after the enzyme reaction”; in series [3] it was “the enzyme was able to cross-link FP#3”.
